Experimental data: US11833164B2, “Methods of treating Fabry disease in patients having a mutation in the GLA gene” (Amicus Therapeutics, Inc., priority 2019, dated 2023)

Tested on: mutant form of α-Gal A expressed in HEK-293 cells
Test: HEK assay (GLP HEK / Migalastat Amenability Assay): α-Gal A activity in lysates of transiently transfected HEK-293 cells incubated with or without 10 μM migalastat
Format: cell-based, human
Conditions: for Absolute increase (% WT): 10 μM migalastat versus baseline; for Relative increase: 10 μM migalastat α-Gal A activity relative to baseline; for 10 μM migalastat α-Gal A activity (% WT): 5 days; for 10 μM migalastat α-Gal A activity (% WT) / Baseline α-Gal A activity (% WT): percentage of baseline wild-type α-Gal A activity; for 10 μM migalastat α-Gal A activity (% WT) / Baseline α-Gal A activity (% WT) / Baseline α-Gal A activity / 10 μM migalastat α-Gal A activity: mean ± SEM; for Baseline α-Gal A activity (% WT): absence of migalastat; for Baseline α-Gal A activity / 10 μM migalastat α-Gal A activity: lysates of HEK-293 cells transfected with the mutant form; for Baseline α-Gal A activity: incubated 5 days in the absence of migalastat; for 10 μM migalastat α-Gal A activity: incubated 5 days with 10 μM migalastat
How it was run: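 Activity reported as 4-MU released (nmol/mg/hr), mean±SEM, from lysates of transiently transfected HEK-293 cells expressing mutant α-Gal A, cultured with or without 10 μM migalastat.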

B1: G150E (protein)
chain: MQLRNPELHLGCALALRFLALVSWDIPGARALDNGLARTPTMGWLHWERFMCNLDCQEEPDSCISEKLFMEMAELMVSEGWKDAGYEYLCIDDCWMAPQRDSEGRLQADPQRFPHGIRQLANYVHSKGLKLGIYADVGNKTCAGFPGSFEYYDIDAQTFADWGVDLLKFDGCYCDSLENLADGYKHMSLALNRTGRSIVYSCEWPLYMWPFQKPNYTEIRQYCNHWRNFADIDDSWKSIKSILDWTSFNQERIVDVAGPGGWNDPDMLVIGNFGLSWNQQVTQMALWAIMAAPLFMSNDLRHISPQAKALLQDKDVIAINQDPLGKQGYQLRQGDNFEVWERPLSGLAWAVAMINRQEIGGPRSYTIAVASLGKGVACNPACFITQLLPVKRKLGFYEWTSRLRSHINPTGTVLLQLENTMQMSLKDLL
Absolute increase (% WT): 12.3 % WT
Relative increase: 1.2
10 μM migalastat α-Gal A activity (% WT): 73.8 ± 7 % WT
Baseline α-Gal A activity (% WT): 61.5 ± 6.6 % WT
Baseline α-Gal A activity: 18804 ± 1070 nmol/mg/h
10 μM migalastat α-Gal A activity: 22710 ± 1059 nmol/mg/h

B2: Y151C (protein)
chain: MQLRNPELHLGCALALRFLALVSWDIPGARALDNGLARTPTMGWLHWERFMCNLDCQEEPDSCISEKLFMEMAELMVSEGWKDAGYEYLCIDDCWMAPQRDSEGRLQADPQRFPHGIRQLANYVHSKGLKLGIYADVGNKTCAGFPGSFGCYDIDAQTFADWGVDLLKFDGCYCDSLENLADGYKHMSLALNRTGRSIVYSCEWPLYMWPFQKPNYTEIRQYCNHWRNFADIDDSWKSIKSILDWTSFNQERIVDVAGPGGWNDPDMLVIGNFGLSWNQQVTQMALWAIMAAPLFMSNDLRHISPQAKALLQDKDVIAINQDPLGKQGYQLRQGDNFEVWERPLSGLAWAVAMINRQEIGGPRSYTIAVASLGKGVACNPACFITQLLPVKRKLGFYEWTSRLRSHINPTGTVLLQLENTMQMSLKDLL
Absolute increase (% WT): 13.2 % WT
Relative increase: 1.4
10 μM migalastat α-Gal A activity (% WT): 45.6 ± 2 % WT
Baseline α-Gal A activity (% WT): 32.4 ± 1.5 % WT
Baseline α-Gal A activity: 11271 ± 579 nmol/mg/h
10 μM migalastat α-Gal A activity: 15859 ± 752 nmol/mg/h

B3: Y152F (protein)
chain: MQLRNPELHLGCALALRFLALVSWDIPGARALDNGLARTPTMGWLHWERFMCNLDCQEEPDSCISEKLFMEMAELMVSEGWKDAGYEYLCIDDCWMAPQRDSEGRLQADPQRFPHGIRQLANYVHSKGLKLGIYADVGNKTCAGFPGSFGYFDIDAQTFADWGVDLLKFDGCYCDSLENLADGYKHMSLALNRTGRSIVYSCEWPLYMWPFQKPNYTEIRQYCNHWRNFADIDDSWKSIKSILDWTSFNQERIVDVAGPGGWNDPDMLVIGNFGLSWNQQVTQMALWAIMAAPLFMSNDLRHISPQAKALLQDKDVIAINQDPLGKQGYQLRQGDNFEVWERPLSGLAWAVAMINRQEIGGPRSYTIAVASLGKGVACNPACFITQLLPVKRKLGFYEWTSRLRSHINPTGTVLLQLENTMQMSLKDLL
Absolute increase (% WT): 11.4 % WT
Relative increase: 1.3
10 μM migalastat α-Gal A activity (% WT): 56.8 ± 2.7 % WT
Baseline α-Gal A activity (% WT): 45.4 ± 2.6 % WT
Baseline α-Gal A activity: 18675 ± 907 nmol/mg/h
10 μM migalastat α-Gal A activity: 23612 ± 1095 nmol/mg/h

B4: G150V (protein)
chain: MQLRNPELHLGCALALRFLALVSWDIPGARALDNGLARTPTMGWLHWERFMCNLDCQEEPDSCISEKLFMEMAELMVSEGWKDAGYEYLCIDDCWMAPQRDSEGRLQADPQRFPHGIRQLANYVHSKGLKLGIYADVGNKTCAGFPGSFVYYDIDAQTFADWGVDLLKFDGCYCDSLENLADGYKHMSLALNRTGRSIVYSCEWPLYMWPFQKPNYTEIRQYCNHWRNFADIDDSWKSIKSILDWTSFNQERIVDVAGPGGWNDPDMLVIGNFGLSWNQQVTQMALWAIMAAPLFMSNDLRHISPQAKALLQDKDVIAINQDPLGKQGYQLRQGDNFEVWERPLSGLAWAVAMINRQEIGGPRSYTIAVASLGKGVACNPACFITQLLPVKRKLGFYEWTSRLRSHINPTGTVLLQLENTMQMSLKDLL
Absolute increase (% WT): 9.2 % WT
Relative increase: 4.3
10 μM migalastat α-Gal A activity (% WT): 12.1 ± 0.7 % WT
Baseline α-Gal A activity (% WT): 2.9 ± 0.1 % WT
Baseline α-Gal A activity: 1080 ± 63 nmol/mg/h
10 μM migalastat α-Gal A activity: 4639 ± 361 nmol/mg/h

B5: Y151D (protein)
chain: MQLRNPELHLGCALALRFLALVSWDIPGARALDNGLARTPTMGWLHWERFMCNLDCQEEPDSCISEKLFMEMAELMVSEGWKDAGYEYLCIDDCWMAPQRDSEGRLQADPQRFPHGIRQLANYVHSKGLKLGIYADVGNKTCAGFPGSFGDYDIDAQTFADWGVDLLKFDGCYCDSLENLADGYKHMSLALNRTGRSIVYSCEWPLYMWPFQKPNYTEIRQYCNHWRNFADIDDSWKSIKSILDWTSFNQERIVDVAGPGGWNDPDMLVIGNFGLSWNQQVTQMALWAIMAAPLFMSNDLRHISPQAKALLQDKDVIAINQDPLGKQGYQLRQGDNFEVWERPLSGLAWAVAMINRQEIGGPRSYTIAVASLGKGVACNPACFITQLLPVKRKLGFYEWTSRLRSHINPTGTVLLQLENTMQMSLKDLL
Absolute increase (% WT): 11.5 % WT
Relative increase: 1.4
10 μM migalastat α-Gal A activity (% WT): 40.8 ± 2.2 % WT
Baseline α-Gal A activity (% WT): 29.3 ± 1.7 % WT
Baseline α-Gal A activity: 10673 ± 604 nmol/mg/h
10 μM migalastat α-Gal A activity: 15196 ± 1025 nmol/mg/h

B6: Y152S (protein)
chain: MQLRNPELHLGCALALRFLALVSWDIPGARALDNGLARTPTMGWLHWERFMCNLDCQEEPDSCISEKLFMEMAELMVSEGWKDAGYEYLCIDDCWMAPQRDSEGRLQADPQRFPHGIRQLANYVHSKGLKLGIYADVGNKTCAGFPGSFGYSDIDAQTFADWGVDLLKFDGCYCDSLENLADGYKHMSLALNRTGRSIVYSCEWPLYMWPFQKPNYTEIRQYCNHWRNFADIDDSWKSIKSILDWTSFNQERIVDVAGPGGWNDPDMLVIGNFGLSWNQQVTQMALWAIMAAPLFMSNDLRHISPQAKALLQDKDVIAINQDPLGKQGYQLRQGDNFEVWERPLSGLAWAVAMINRQEIGGPRSYTIAVASLGKGVACNPACFITQLLPVKRKLGFYEWTSRLRSHINPTGTVLLQLENTMQMSLKDLL
Absolute increase (% WT): 19.6 % WT
Relative increase: 1.7
10 μM migalastat α-Gal A activity (% WT): 46.7 ± 2.6 % WT
Baseline α-Gal A activity (% WT): 27.1 ± 1.7 % WT
Baseline α-Gal A activity: 9917 ± 917 nmol/mg/h
10 μM migalastat α-Gal A activity: 16642 ± 1218 nmol/mg/h

B7: Y151S (protein)
chain: MQLRNPELHLGCALALRFLALVSWDIPGARALDNGLARTPTMGWLHWERFMCNLDCQEEPDSCISEKLFMEMAELMVSEGWKDAGYEYLCIDDCWMAPQRDSEGRLQADPQRFPHGIRQLANYVHSKGLKLGIYADVGNKTCAGFPGSFGSYDIDAQTFADWGVDLLKFDGCYCDSLENLADGYKHMSLALNRTGRSIVYSCEWPLYMWPFQKPNYTEIRQYCNHWRNFADIDDSWKSIKSILDWTSFNQERIVDVAGPGGWNDPDMLVIGNFGLSWNQQVTQMALWAIMAAPLFMSNDLRHISPQAKALLQDKDVIAINQDPLGKQGYQLRQGDNFEVWERPLSGLAWAVAMINRQEIGGPRSYTIAVASLGKGVACNPACFITQLLPVKRKLGFYEWTSRLRSHINPTGTVLLQLENTMQMSLKDLL
Absolute increase (% WT): 22.2 % WT
Relative increase: 1.3
10 μM migalastat α-Gal A activity (% WT): 107 ± 4.9 % WT
Baseline α-Gal A activity (% WT): 84.8 ± 4.2 % WT
Baseline α-Gal A activity: 30047 ± 1943 nmol/mg/h
10 μM migalastat α-Gal A activity: 37527 ± 2003 nmol/mg/h

B8: D153H (protein)
chain: MQLRNPELHLGCALALRFLALVSWDIPGARALDNGLARTPTMGWLHWERFMCNLDCQEEPDSCISEKLFMEMAELMVSEGWKDAGYEYLCIDDCWMAPQRDSEGRLQADPQRFPHGIRQLANYVHSKGLKLGIYADVGNKTCAGFPGSFGYYHIDAQTFADWGVDLLKFDGCYCDSLENLADGYKHMSLALNRTGRSIVYSCEWPLYMWPFQKPNYTEIRQYCNHWRNFADIDDSWKSIKSILDWTSFNQERIVDVAGPGGWNDPDMLVIGNFGLSWNQQVTQMALWAIMAAPLFMSNDLRHISPQAKALLQDKDVIAINQDPLGKQGYQLRQGDNFEVWERPLSGLAWAVAMINRQEIGGPRSYTIAVASLGKGVACNPACFITQLLPVKRKLGFYEWTSRLRSHINPTGTVLLQLENTMQMSLKDLL
Absolute increase (% WT): 20.5 % WT
Relative increase: 1.3
10 μM migalastat α-Gal A activity (% WT): 81 ± 2.1 % WT
Baseline α-Gal A activity (% WT): 60.5 ± 2.2 % WT
Baseline α-Gal A activity: 23578 ± 1741 nmol/mg/h
10 μM migalastat α-Gal A activity: 31052 ± 1774 nmol/mg/h

B9: D153A (protein)
chain: MQLRNPELHLGCALALRFLALVSWDIPGARALDNGLARTPTMGWLHWERFMCNLDCQEEPDSCISEKLFMEMAELMVSEGWKDAGYEYLCIDDCWMAPQRDSEGRLQADPQRFPHGIRQLANYVHSKGLKLGIYADVGNKTCAGFPGSFGYYAIDAQTFADWGVDLLKFDGCYCDSLENLADGYKHMSLALNRTGRSIVYSCEWPLYMWPFQKPNYTEIRQYCNHWRNFADIDDSWKSIKSILDWTSFNQERIVDVAGPGGWNDPDMLVIGNFGLSWNQQVTQMALWAIMAAPLFMSNDLRHISPQAKALLQDKDVIAINQDPLGKQGYQLRQGDNFEVWERPLSGLAWAVAMINRQEIGGPRSYTIAVASLGKGVACNPACFITQLLPVKRKLGFYEWTSRLRSHINPTGTVLLQLENTMQMSLKDLL
Absolute increase (% WT): 21.6 % WT
Relative increase: 1.4
10 μM migalastat α-Gal A activity (% WT): 81.6 ± 2.3 % WT
Baseline α-Gal A activity (% WT): 60.1 ± 2.4 % WT
Baseline α-Gal A activity: 22606 ± 1445 nmol/mg/h
10 μM migalastat α-Gal A activity: 30854 ± 1997 nmol/mg/h
